Source: patent US9340577B2, “HLA binding motifs and peptides and their uses” (priority 1992, dated 2016)

Target: A2.1 HLA molecules (Homo sapiens, UniProt P04439, D140Y/D185E/D98H/E176V/E277Q/G131W/G231S/I119V/I121R/I166T/I218V/L300P/L318F/N151K/N90K/P208A/P217A/Q86G/Q94H/R138H/R169H/T345S)
Type: binding
Design: A*0201 / A2.1 Binding / A2 Bind. / A2 / A2.1 (binding capacity): scale not given here

Substance | A*0201 | A2 Bind. | A2.1 Binding | A2.1 relative binding (ratio of binding of test peptide relative to standard peptide) | A2
ALBRWGLLV [Peptide 34.0132] | 0.0960 |  |  |  | 
ALGRNSFEV |  | 0.0570 |  |  | 
ALHLFKTTV |  | 0.0170 |  |  | 
ALISFLLLA |  | 0.2200 |  |  | 
ALLDGGNML |  | 0.0320 |  |  | 
ALLLVLALL |  |  | 0.0014 |  | 
ALMDLLMFS |  | 0.4300 |  |  | 
ALMPLYASI |  | 0.0760 |  |  | 
ALPPASPSA |  | 0.0710 |  |  | 
ALSLIVNLL |  | 0.0470 |  |  | 
AMGLVCVQV |  |  |  | 0.012 | 
AMLTACVEV |  | 0.1000 | 0.089 |  | 
AMPRRVLHA |  |  | 0.0014 |  | 
AMSFTFTTL |  |  | 0.0005 |  | 
AMSRNLFRV |  | 0.1500 | 0.15 |  | 
CLFHIVNLI |  | 0.2100 |  |  | 
CLGWLTGMDI |  | 0.0190 |  |  | 
DLKQMERVV |  |  | 0 |  | 
DMLGRVFFV |  | 0.0110 | 0.011 |  | 
ELKKVSVL |  |  | 0 |  | 
ELKQTRVNL |  |  | 0 |  | 
ELQMMQDWV |  |  | 0.0001 |  | 
ELSIFRERL |  |  | 0.0002 |  | 

Substance | A*0201 | A2 Bind. | A2.1 Binding | A2.1 relative binding (ratio of binding of test peptide relative to standard peptide) | A2
FLGLSPTVWV [listing 1 of 2 here] |  | 0.0300 |  |  | 
FLGLSPTVWV [listing 2 of 2 here] |  |  |  | 0.030 | 
FLLAQFTSA |  | 0.6600 |  |  | 0.6600
FLPSDFFPSI |  | 0.2100 |  |  | 
FLRVQQKAL |  |  | 0.0002 |  | 
FMLLLCLIFL |  | 0.0450 |  |  | 
FMQTYLVTL |  |  | 0.68 |  | 
FMWTYLVTL |  | 0.6800 |  |  | 
GLCAVFADV |  |  |  | 0.030 | 
GLCQVFADV |  | 0.0300 |  |  | 
GLLGCIITSL |  |  |  |  | 0.0610
GLRDCTMLV [Peptide F124.11] | 0.0120 |  |  |  | 
GLRQLKGAL |  |  | 0.0001 |  | 
GLSYDGLLV |  |  |  | 0.0047 | 
GLWCVLFFV |  | 0.4700 | 0.47 |  | 
GLWIRTPPV [listing 1 of 2 here] |  | 0.3600 |  |  | 
GLWIRTPPV [listing 2 of 2 here] |  |  |  | 0.36 | 
GMLPVCPLI |  | 0.0520 |  |  | 
HLPDLVHFA |  | 0.1100 |  |  | 
HLPDRVHFA |  | 0.0160 |  |  | 
IIGAETFYV |  | 0.0260 |  |  | 0.0260
IISAVVGILL |  | 0.0120 |  |  | 
IISCTCPTV |  | 0.0190 |  |  | 

Substance | A*0201 | A2 Bind. | A2.1 Binding | A2.1 relative binding (ratio of binding of test peptide relative to standard peptide) | A2
ILCWGELMTL |  | 0.1900 |  |  | 
ILGFVFTLT |  | 0.2600 |  |  | 
ILGFVFTLTV |  | 0.0550 |  |  | 
ILGLLGFAV [listing 1 of 2 here] |  | 0.0600 |  |  | 
ILGLLGFAV [listing 2 of 2 here] |  |  |  | 0.060 | 
KA SEYLQLV |  | 0.0110 |  |  | 
KLVALGVNAV [Peptide F124.12] | 0.0200 |  |  |  | 
KLVSLGVNAV [Peptide F124.23] | 0.0150 |  |  |  | 
KLWVTVYYGV |  | 0.0150 |  |  | 
KMFBQLAKV [Peptide 34.014] | 0.0980 |  |  |  | 
LIISCSCPTV |  | 0.0290 |  |  | 
LLALLSCLTI |  |  |  |  | 0.0340
LLALLSCLTV [Peptide F127.03] | 0.0240 |  |  |  | 
LLCLGWLWGM |  | 0.0220 |  |  | 
LLCPAGHAV [Peptide F127.06] | 0.0140 |  |  |  | 
LLEDWGPCA |  | 0.0180 |  |  | 
LLFFWLDRSV |  | 0.6000 |  |  | 
LLFNILGWV [Peptide F127.09] | 1.7000 |  |  |  | 
LLGANSFEV |  | 0.1100 |  |  | 
LLGDNQIMV |  |  |  | 0.043 | 
LLGRASFEV |  | 0.2200 |  |  | 
LLGRNAFEV |  | 0.0390 |  |  | 
LLGRNSFAV |  | 0.0420 |  |  | 

Substance | A*0201 | A2 Bind. | A2.1 Binding | A2.1 relative binding (ratio of binding of test peptide relative to standard peptide) | A2
LLGRNSFRV |  | 0.0250 |  |  | 
LLGRRSFEV |  | 0.0540 |  |  | 
LLLCRLPFL |  | 0.4200 | 0.42 |  | 
LLLYYDYSL |  | 0.2800 | 0.28 |  | 
LLPFVQWFV [listing 1 of 2 here] |  | 0.6500 |  |  | 
LLPFVQWFV [listing 2 of 2 here] |  |  |  | 0.63 | 
LLSTTEWQV |  | 0.0480 |  |  | 
LLTEVETYV |  | 0.2000 |  |  | 
LLTEVETYVL |  | 0.0130 |  |  | 
LLVPFVQWFA |  | 0.2600 |  |  | 
LLWFHISCLI |  | 0.0130 |  |  | 
LLWKGEGAVV |  |  |  |  | 0.0360
LLWWITILL |  | 0.4900 | 0.49 |  | 
LMCRYTPRL |  |  | 0.0055 |  | 
LMDLLMFST |  | 0.0460 |  |  | 
LMFSTSAYL |  | 0.3600 |  |  | 
LMIRGVLEV |  | 0.4500 | 0.45 |  | 
LMLGTLEEV |  |  |  | 0.13 | 
LMLLDYQGMV |  |  |  | 0.0087 | 
LMLQAGFFLV |  | 0.6300 |  |  | 
